Assay results: patent publication US20220119490A1 (Genentech, published 2022)

T1: mouse CD177 (mouse, UniProt Q8R2S8 22-796, limits assumed)
T1 sequence (looked up): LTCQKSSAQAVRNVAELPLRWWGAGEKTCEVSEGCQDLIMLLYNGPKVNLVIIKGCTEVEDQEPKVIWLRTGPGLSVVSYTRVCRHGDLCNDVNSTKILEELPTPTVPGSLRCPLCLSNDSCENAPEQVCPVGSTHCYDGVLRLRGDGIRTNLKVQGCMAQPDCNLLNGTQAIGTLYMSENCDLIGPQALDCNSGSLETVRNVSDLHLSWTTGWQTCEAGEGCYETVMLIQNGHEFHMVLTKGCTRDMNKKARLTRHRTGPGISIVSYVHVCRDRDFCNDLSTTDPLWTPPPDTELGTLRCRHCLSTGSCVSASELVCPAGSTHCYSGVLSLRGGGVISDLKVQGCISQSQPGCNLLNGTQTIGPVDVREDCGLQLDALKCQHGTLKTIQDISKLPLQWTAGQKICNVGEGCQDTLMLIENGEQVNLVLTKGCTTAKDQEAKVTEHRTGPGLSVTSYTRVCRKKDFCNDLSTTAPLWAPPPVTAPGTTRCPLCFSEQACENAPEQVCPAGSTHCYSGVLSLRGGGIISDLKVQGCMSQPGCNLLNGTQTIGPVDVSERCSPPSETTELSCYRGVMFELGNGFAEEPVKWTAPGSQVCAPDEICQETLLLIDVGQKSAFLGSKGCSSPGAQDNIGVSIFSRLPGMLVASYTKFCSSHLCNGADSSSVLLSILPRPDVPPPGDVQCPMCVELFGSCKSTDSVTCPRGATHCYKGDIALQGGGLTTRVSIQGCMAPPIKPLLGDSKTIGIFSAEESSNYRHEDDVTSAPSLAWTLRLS

T2: EPHA3 expressed on cells (human, UniProt P29320 21-983)
T2 construct: whole, on cells; also called ephrin type-A receptor 3
T2 sequence (looked up): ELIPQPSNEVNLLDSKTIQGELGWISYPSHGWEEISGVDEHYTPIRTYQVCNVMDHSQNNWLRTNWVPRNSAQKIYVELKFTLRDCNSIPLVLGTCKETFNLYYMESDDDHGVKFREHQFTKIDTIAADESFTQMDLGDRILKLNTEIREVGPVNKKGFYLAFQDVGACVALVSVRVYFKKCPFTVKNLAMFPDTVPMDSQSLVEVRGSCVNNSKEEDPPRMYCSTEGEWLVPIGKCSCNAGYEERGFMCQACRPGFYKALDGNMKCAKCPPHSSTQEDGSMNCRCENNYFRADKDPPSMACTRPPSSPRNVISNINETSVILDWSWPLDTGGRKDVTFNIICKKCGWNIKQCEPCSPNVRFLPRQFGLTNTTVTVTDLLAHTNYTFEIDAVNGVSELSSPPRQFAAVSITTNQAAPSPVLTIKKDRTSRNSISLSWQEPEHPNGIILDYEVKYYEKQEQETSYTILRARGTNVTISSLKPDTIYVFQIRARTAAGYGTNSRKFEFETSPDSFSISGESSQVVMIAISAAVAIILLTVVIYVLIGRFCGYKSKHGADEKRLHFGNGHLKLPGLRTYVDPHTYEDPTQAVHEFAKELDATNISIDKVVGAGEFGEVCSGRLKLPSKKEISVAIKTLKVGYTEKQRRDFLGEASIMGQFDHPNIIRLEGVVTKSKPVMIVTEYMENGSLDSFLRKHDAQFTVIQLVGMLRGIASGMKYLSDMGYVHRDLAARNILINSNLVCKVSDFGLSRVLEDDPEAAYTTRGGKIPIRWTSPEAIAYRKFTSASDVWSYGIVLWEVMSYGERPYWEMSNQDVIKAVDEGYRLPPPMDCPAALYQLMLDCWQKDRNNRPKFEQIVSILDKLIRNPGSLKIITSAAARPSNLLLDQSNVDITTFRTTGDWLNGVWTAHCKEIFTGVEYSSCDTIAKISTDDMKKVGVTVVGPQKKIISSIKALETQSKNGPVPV

T3: CEACAM5 expressed on cells (human, UniProt P06731 35-685)
T3 construct: whole, on cells
T3 sequence (looked up): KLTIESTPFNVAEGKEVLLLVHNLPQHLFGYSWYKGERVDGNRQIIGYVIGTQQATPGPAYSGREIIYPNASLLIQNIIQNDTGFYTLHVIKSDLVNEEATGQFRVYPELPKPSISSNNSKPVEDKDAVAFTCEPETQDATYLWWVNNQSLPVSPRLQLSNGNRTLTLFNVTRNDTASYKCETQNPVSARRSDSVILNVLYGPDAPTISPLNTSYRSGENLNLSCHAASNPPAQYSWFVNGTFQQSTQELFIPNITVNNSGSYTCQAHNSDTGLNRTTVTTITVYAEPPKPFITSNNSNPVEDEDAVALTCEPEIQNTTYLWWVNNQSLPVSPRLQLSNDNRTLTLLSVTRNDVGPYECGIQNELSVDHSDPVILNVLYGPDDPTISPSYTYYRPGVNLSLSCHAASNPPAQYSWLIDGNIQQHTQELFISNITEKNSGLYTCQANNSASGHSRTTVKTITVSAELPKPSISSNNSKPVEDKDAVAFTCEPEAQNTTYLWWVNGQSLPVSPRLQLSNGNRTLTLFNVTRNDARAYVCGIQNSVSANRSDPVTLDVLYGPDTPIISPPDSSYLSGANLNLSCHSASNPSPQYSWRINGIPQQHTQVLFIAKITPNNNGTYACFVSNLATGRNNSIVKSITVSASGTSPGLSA

T4: ICAM5 (human, UniProt Q9UMF0)
T4 construct: extracellular domain
T4 sequence (extracellular domain construct of the screen, looked up): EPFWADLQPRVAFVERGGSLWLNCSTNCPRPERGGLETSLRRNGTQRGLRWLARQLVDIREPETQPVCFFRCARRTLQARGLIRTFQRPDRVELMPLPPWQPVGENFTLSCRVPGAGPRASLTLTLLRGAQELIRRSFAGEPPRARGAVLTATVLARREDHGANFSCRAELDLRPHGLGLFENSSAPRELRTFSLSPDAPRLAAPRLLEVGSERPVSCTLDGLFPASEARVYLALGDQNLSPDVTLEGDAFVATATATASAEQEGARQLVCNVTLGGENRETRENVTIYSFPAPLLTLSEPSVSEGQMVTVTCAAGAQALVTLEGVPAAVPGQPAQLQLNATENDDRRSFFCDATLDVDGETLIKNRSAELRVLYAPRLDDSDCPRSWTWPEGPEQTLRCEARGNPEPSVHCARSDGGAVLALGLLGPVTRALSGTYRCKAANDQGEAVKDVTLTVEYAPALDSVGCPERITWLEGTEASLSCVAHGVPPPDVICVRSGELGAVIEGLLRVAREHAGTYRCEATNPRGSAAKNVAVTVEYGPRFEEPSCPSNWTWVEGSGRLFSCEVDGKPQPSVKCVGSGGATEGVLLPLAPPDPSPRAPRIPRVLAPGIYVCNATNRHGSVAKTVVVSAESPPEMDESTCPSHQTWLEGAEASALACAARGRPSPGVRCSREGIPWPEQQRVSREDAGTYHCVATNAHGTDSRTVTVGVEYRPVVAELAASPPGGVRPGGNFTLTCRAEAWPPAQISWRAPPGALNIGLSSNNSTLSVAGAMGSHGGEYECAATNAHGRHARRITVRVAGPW

T5: EPHA3 extracellular domain (human, UniProt P29320 21-541)
T5 construct: extracellular domain; ECD construct; also called ephrin type-A receptor 3
T5 sequence (looked up): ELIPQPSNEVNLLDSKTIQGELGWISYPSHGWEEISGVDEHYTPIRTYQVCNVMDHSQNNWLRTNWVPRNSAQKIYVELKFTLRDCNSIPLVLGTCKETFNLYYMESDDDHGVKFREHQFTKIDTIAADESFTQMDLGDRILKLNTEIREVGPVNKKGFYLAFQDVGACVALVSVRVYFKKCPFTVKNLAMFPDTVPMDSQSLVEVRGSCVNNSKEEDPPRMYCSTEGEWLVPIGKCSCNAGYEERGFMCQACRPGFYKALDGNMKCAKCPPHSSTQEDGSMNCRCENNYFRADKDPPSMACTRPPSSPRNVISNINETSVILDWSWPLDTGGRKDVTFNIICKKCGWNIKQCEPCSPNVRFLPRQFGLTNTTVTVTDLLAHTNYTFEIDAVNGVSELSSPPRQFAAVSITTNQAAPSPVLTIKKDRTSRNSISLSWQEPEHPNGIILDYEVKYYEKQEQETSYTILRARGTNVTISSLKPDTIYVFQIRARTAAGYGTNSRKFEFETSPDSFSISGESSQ

B1: mouse PDPN (receptor, UniProt Q62011 23-141, looked up)
chain: GTIGVNEDDIVTPGTGDGMVPPGIEDKITTTGATGGLNESTGKAPLVPTQRERGTKPPLEELSTSATSDHDHREHESTTTVKVVTSHSVDKKTSHPNRDNAGDETQTTDKKDGLPVVTL
B2: PD-L2 extracellular domain (ligand, human, UniProt Q9BQ51 20-220, looked up)
chain: LFTVTVPKELYIIEHGSNVTLECNFDTGSHVNLGAITASLQKVENDTSPHRERATLLEEQLPLGKASFHIPQVQVRDEGQYQCIIIYGVAWDYKYLTLKVKASYRKINTHILKVPETDEVELTCQATGYPLAEVSWPNVSVPANTSHSRTPEGLYQVTSVLRLKPPPGRNFSCVFWNTHVRELTLASIDLQSQMEPRTHPT
notes: extracellular domain; ECD construct; also called PDCD1LG2; programmed cell death 1 ligand 2
B3: CEACAM4 expressed on cells (receptor, human, UniProt O75871 36-244, looked up)
chain: FTIEALPSSAAEGKDVLLLACNISETIQAYYWHKGKTAEGSPLIAGYITDIQANIPGAAYSGRETVYPNGSLLFQNITLEDAGSYTLRTINASYDSDQATGQLHVHQNNVPGLPVGAVAGIVTGVLVGVALVAALVCFLLLSRTGRASIQRDLREQPPPASTPGHGPSHRSTFSAPLPSPRTATPIYEELLYSDANIYCQIDHKADVVS
notes: whole, on cells
B4: CEACAM4 extracellular domain (receptor, human, UniProt O75871 36-155, looked up)
chain: FTIEALPSSAAEGKDVLLLACNISETIQAYYWHKGKTAEGSPLIAGYITDIQANIPGAAYSGRETVYPNGSLLFQNITLEDAGSYTLRTINASYDSDQATGQLHVHQNNVPGLPVGAVAG
notes: extracellular domain; ECD construct

Experiments:
[1] = molecular target: T1, mouse CD177; experiment: SPR
[2] = molecular target: T6, PD-L1 expressed on cells (human, UniProt Q9NZQ7 19-290); experiment: cell surface interaction assay: PD-L2 ECD tetramer on transfected cells (FIG. 4F)
T6 construct: whole, on cells; also called CD274
T6 sequence (Q9NZQ7 19-290): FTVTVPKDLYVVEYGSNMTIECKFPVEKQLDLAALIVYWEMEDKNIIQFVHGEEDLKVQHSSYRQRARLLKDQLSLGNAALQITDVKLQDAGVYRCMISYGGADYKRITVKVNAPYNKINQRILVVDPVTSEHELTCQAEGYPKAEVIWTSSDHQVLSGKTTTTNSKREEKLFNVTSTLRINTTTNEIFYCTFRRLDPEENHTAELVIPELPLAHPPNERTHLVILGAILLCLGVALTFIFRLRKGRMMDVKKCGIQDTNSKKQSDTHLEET

[3] = molecular target: B3; experiment: as above
[4] = molecular target: T2, EPHA3 expressed on cells; experiment: as above
[5] = molecular target: T3, CEACAM5 expressed on cells; experiment: as above
[6] = molecular target: T4, ICAM5; experiment: extracellular interaction screen, normalized intensity; labelled dot against the clone named on the axis; which is query and which prey is not given; colour of the predicted class lost
[7] = molecular target: T5, EPHA3 extracellular domain; experiment: SPR, EPHA3 ECD-Fc immobilized, ECD-Fc analytes at 250 nM
From the text: (§1) An irrelevant Fc-tagged protein was used as a control. Sensorgram shown is representative of at least 3 independent runs.

[8] = molecular target: T7, PD-L1 extracellular domain (human, UniProt Q9NZQ7 19-238); experiment: cell surface interaction assay: PD-L1 ECD tetramer on transfected cells (FIG. 4F)
T7 construct: extracellular domain; ECD construct; also called CD274; programmed cell death 1 ligand 1
T7 sequence (Q9NZQ7 19-238): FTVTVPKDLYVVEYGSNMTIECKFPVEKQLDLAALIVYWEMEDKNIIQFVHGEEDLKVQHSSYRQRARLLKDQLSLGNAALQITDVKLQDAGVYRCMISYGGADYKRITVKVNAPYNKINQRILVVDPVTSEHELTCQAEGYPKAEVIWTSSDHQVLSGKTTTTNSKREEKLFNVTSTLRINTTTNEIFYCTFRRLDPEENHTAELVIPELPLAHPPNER

[9] = molecular target: T7, PD-L1 extracellular domain; experiment: SPR, CEACAM4 ECD-Fc immobilized, ECD-Fc analytes at 250 nM
From the text: as §1

[10] = molecular target: T8, PD-1 extracellular domain (human, UniProt Q15116 25-170); experiment: as above
T8 construct: extracellular domain; ECD construct; also called PDCD1; programmed cell death 1
T8 sequence (Q15116 25-170): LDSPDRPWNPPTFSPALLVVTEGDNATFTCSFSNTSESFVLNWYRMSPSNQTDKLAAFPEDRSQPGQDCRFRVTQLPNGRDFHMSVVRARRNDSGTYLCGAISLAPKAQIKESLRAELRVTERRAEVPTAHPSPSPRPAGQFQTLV
From the text: as §1

[11] = molecular target: B2; experiment: SPR, calculated in equilibrium; PD-L2 immobilized, His-tagged CEACAM4 ECD as analyte (FIG. 10E)

B1: no binding [1].

B2: binds [2]; binds [3]; no binding [4]. B2: no binding [5]; binds [6]; no binding (tested: 250 nM) [7].

B3: no binding [8].

In the case of B4, the binding result [9] is reported as “no binding (tested: 250 nM)”, the binding result [10] is reported as “no binding (tested: 250 nM)” and the Kd [11] is reported as 84 nM.
